{"source": "patent US20100190692A1", "about": "(published 2010)", "key": {"human GnRH receptor [1]": {"target": "T1, human GnRH receptor (human, UniProt P30968 1-328)", "T1 construct": "whole, on cells; Endogenous receptor; also called LHRH receptor; human pituitary GnRH receptor", "T1 sequence (looked up)": "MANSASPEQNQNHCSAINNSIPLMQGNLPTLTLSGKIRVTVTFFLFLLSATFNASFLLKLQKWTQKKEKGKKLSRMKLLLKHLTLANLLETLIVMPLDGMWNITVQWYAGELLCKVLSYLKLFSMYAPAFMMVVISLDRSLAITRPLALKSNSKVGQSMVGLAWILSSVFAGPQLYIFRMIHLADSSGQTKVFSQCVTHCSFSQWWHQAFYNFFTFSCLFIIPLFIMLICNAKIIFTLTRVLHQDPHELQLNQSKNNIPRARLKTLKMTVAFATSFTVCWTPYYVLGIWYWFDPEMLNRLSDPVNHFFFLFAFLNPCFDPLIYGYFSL", "test": "cell-based or functional assay"}, "human GnRH receptor [2]": {"target": "T1, human GnRH receptor", "test": "radioligand displacement curves on BLM melanoma cell membranes"}, "human GnRH receptor [3]": {"target": "T1, human GnRH receptor", "test": "radioligand displacement curves on ME15392 melanoma cell membranes"}, "[4]": {"target": "T2, rat pituitary GnRH receptor (rat, UniProt P30969 1-327)", "T2 construct": "whole, on cells; also called Rat pituitaries", "T2 sequence (looked up)": "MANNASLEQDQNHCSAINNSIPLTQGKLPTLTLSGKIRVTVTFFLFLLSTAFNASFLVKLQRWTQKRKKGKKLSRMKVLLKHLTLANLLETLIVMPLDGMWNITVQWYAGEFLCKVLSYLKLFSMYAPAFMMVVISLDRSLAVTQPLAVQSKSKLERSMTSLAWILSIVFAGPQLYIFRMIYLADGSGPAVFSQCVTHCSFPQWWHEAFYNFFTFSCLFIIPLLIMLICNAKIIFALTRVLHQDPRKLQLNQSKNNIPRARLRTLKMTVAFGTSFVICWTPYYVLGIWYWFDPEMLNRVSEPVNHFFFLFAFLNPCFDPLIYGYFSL", "test": "radioligand displacement curves on rat pituitary membranes (control)"}}, "note": "*1 amine or outer side, *2 acyl side, *3 side chain or, on linkers, in order; H or OH if unused. [ ]: non-standard residue; d: D form. dSer(tBu) = CC(C)(C)OC[C@@H](N[*:1])C(=O)[*:2]; pGlu = O=C1CC[C@@H](C(=O)O)N1; azaGly = NNC(=O)O"}
{"molecule": "Antide (LHRH antagonist, Sigma Chemical Co., No. A8802) (peptide)", "values": [{"measurement": "inhibition of proliferation of MV3 melanoma cells at 10^-4 M", "setting": "human GnRH receptor [1]", "result": 15, "unit": "%"}, {"measurement": "inhibition of proliferation of MV3 melanoma cells at 10^-5 M", "setting": "human GnRH receptor [1]", "result": 35, "unit": "%"}, {"measurement": "stimulation of growth of MV3 melanoma cells at 10^-6 M", "setting": "human GnRH receptor [1]", "result": 40, "unit": "%"}]}
{"molecule": "Cetrorelix (GnRH antagonist) (peptide)", "values": [{"measurement": "decrease of proliferation of U-87MG cells at 10^-6 M", "setting": "human GnRH receptor [1]", "result": 28, "unit": "%"}, {"measurement": "inhibition of proliferation of U-87MG cells at 10^-5 M", "setting": "human GnRH receptor [1]", "result": 30, "unit": "%"}]}
{"molecule": "Triptorelin (LHRH agonist, Sigma Chemical Co., No. L9761) (peptide)", "values": [{"measurement": "inhibition of proliferation of MV3 melanoma cells from day 4 on (10^-4, 10^-5, 10^-6 M)", "setting": "human GnRH receptor [1]", "result": 15, "unit": "%"}]}
{"molecule": "[pGlu]HWSY[dSer(tBu)]LRP[azaGly]-NH2 (also: ^125I-labelled form used as tracer in binding assay, also called Goserelin)", "note": "[GnRH agonist LHRH-A (ZOLADEX, [D-Ser(tBu)^6Aza-Gly-LHRH])]", "values": [{"measurement": "Kd", "setting": "human GnRH receptor [2]", "result": "0.7 to 1.1", "unit": "nM"}, {"measurement": "Kd", "setting": "human GnRH receptor [3]", "result": "0.1 to 0.6", "unit": "nM"}, {"measurement": "Kd", "setting": "[4]", "result": "1.5 to 2", "unit": "nM"}]}
